B1: ERBB4, Q15303 (peptide)
chain: PPYRHRNTVV
B2: BANF1, O75531 (peptide)
chain: CLREWCDAFL
B3: GRIN2C, Q14957 (peptide)
chain: RRISSLESEV
B4: AQP6, Q13520 (peptide)
chain: GSGAVEMESV

Assays:
Assay in all cases: holdup assay
Design in all cases: key: below the threshold = too weak to quantify, mostly under pKd 3.1 to 4
Conditions in all cases: plain residues with an end cap or a label only (N-terminal biotin on a linker: ado-ado)
HTRA4, P83105 = biological target: T1, HTRA4, P83105
T1 sequence (P83105 378-476, limits assumed, looked up): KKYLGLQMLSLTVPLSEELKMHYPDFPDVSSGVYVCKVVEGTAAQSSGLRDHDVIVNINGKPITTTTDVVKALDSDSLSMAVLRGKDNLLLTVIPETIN

Inadl_9, Q8NI35 = biological target: Inadl_9, Q8NI35
Inadl_3, Q8NI35 = biological target: Inadl_3, Q8NI35
SYNJ2BP, P57105 = biological target: T2, SYNJ2BP, P57105
T2 sequence (P57105 8-110, limits assumed, looked up): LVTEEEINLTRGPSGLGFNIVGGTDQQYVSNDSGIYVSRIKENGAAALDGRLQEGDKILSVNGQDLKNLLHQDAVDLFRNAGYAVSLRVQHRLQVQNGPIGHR

SNTG2, Q9NY99 = biological target: T3, SNTG2, Q9NY99
T3 sequence (Q9NY99 68-166, limits assumed, looked up): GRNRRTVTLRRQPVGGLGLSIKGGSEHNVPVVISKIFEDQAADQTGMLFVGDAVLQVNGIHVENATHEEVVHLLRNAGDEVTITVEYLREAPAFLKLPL

NHERF2_2, Q15599 = biological target: NHERF2_2, Q15599
ARHGEF11, O15085 = biological target: T4, ARHGEF11, O15085
T4 sequence (O15085 42-136, limits assumed, looked up): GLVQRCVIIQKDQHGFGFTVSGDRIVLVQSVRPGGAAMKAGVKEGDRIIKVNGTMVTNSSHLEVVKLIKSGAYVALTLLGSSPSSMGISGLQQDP

NOS1, P29475 = biological target: NOS1, P29475
MAGI2_5, Q86UL8 = biological target: MAGI2_5, Q86UL8
HTRA3, P83110 = biological target: T5, HTRA3, P83110
T5 sequence (P83110 354-453, limits assumed, looked up): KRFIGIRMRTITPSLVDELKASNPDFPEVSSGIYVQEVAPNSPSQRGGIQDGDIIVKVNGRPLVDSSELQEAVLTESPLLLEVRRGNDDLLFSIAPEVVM

SIPA1L2, Q9P2F8 = biological target: T6, SIPA1L2, Q9P2F8
T6 sequence (Q9P2F8 945-1036, limits assumed, looked up): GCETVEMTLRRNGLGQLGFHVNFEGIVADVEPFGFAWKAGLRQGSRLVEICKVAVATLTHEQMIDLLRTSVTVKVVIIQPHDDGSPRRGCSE

MAST1, Q9Y2H9 = biological target: MAST1, Q9Y2H9
Inadl_4, Q8NI35 = biological target: Inadl_4, Q8NI35
IL16_1, Q14005 = biological target: IL16_1, Q14005
TJP1_2, Q07157 = biological target: TJP1_2, Q07157
SCRIB_2, Q14160 = biological target: SCRIB_2, Q14160
ARHGEF12, Q9NZN5-2 = biological target: ARHGEF12, Q9NZN5-2
SNTA1, Q13424 = biological target: T7, SNTA1, Q13424
T7 sequence (Q13424 82-180, limits assumed, looked up): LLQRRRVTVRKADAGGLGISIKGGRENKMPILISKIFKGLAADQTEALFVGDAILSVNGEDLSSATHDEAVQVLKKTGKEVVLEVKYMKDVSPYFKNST

PARD3_3, Q8TEW0 = biological target: PARD3_3, Q8TEW0
LNX2_3, Q8N448 = biological target: T8, LNX2_3, Q8N448
T8 sequence (Q8N448 463-564, limits assumed, looked up): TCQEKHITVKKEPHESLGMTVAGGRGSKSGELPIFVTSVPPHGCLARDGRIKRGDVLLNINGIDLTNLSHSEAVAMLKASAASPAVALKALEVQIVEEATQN

PCLO, Q9Y6V0 = biological target: T9, PCLO, Q9Y6V0
T9 sequence (Q9Y6V0 4491-4600, limits assumed, looked up): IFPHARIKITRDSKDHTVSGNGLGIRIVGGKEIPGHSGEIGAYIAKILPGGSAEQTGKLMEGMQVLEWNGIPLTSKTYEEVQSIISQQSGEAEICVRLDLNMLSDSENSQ

PARD3B_1, Q8TEW8 = biological target: T10, PARD3B_1, Q8TEW8
T10 sequence (Q8TEW8 196-299, limits assumed, looked up): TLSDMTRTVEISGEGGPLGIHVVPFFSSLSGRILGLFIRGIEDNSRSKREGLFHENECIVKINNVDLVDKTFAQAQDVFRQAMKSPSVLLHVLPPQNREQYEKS

DLG2_2, Q15700 = biological target: DLG2_2, Q15700
MPP7, Q5T2T1 = biological target: T11, MPP7, Q5T2T1
T11 sequence (Q5T2T1 134-230, limits assumed, looked up): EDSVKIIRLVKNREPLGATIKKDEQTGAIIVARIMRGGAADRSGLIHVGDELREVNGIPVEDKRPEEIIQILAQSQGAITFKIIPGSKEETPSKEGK

NHERF4_1, Q86UT5-2 = biological target: NHERF4_1, Q86UT5-2
SNTG1, Q9NSN8 = biological target: T12, SNTG1, Q9NSN8
T12 sequence (Q9NSN8 52-150, limits assumed, looked up): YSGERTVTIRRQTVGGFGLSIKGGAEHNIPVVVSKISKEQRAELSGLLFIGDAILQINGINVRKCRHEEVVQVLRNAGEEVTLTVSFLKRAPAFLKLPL

Sequence of MAST1, Q9Y2H9 (Q9Y2H9 962-1065): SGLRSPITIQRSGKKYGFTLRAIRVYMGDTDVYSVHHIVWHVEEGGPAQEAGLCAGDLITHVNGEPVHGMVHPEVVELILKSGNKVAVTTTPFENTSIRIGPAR
Sequence of NHERF2_2, Q15599 (Q15599 142-238): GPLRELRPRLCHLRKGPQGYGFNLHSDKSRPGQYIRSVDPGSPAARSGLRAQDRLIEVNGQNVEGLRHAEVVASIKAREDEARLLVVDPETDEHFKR
Sequence of SCRIB_2, Q14160 (Q14160 857-960): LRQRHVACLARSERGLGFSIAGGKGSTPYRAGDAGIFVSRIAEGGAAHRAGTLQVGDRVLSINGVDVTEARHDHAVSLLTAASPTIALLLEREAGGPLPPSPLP
Sequence of TJP1_2, Q07157 (Q07157 181-274): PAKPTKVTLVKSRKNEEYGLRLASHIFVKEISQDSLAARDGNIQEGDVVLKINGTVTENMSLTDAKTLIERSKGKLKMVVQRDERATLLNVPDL
Sequence of MAGI2_5, Q86UL8 (Q86UL8 915-1017): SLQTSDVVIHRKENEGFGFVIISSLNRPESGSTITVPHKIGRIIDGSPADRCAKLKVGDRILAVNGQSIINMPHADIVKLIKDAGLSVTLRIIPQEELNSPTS
Sequence of Inadl_3, Q8NI35 (Q8NI35 359-469): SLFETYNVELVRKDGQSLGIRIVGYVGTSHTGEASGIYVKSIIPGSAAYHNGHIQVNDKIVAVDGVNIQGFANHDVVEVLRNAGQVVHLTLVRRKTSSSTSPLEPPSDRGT
Sequence of DLG2_2, Q15700 (Q15700 189-283): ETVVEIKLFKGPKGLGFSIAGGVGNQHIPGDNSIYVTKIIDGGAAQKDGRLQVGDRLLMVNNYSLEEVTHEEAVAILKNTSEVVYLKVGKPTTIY
Sequence of Inadl_9, Q8NI35 (Q8NI35 1530-1615): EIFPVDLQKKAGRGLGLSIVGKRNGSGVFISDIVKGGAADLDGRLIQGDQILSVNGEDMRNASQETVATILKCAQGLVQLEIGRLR
Sequence of IL16_1, Q14005 (Q14005 210-306): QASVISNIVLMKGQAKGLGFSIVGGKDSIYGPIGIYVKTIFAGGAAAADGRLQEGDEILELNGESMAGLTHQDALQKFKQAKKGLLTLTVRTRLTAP
Sequence of Inadl_4, Q8NI35 (Q8NI35 547-651): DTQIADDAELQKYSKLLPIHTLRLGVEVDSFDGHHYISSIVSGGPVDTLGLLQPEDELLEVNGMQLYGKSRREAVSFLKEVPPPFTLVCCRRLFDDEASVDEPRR
Sequence of ARHGEF12, Q9NZN5-2 (Q9NZN5 other isoform, or with tags, fused parts or gaps): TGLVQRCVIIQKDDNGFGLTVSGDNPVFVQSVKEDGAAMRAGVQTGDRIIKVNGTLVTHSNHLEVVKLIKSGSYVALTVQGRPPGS
Sequence of PARD3_3, Q8TEW0 (Q8TEW0 582-685): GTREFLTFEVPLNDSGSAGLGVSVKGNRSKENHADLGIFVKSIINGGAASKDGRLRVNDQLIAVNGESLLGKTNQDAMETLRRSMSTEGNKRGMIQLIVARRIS
Sequence of NHERF4_1, Q86UT5-2 (Q86UT5 other isoform, or with tags, fused parts or gaps): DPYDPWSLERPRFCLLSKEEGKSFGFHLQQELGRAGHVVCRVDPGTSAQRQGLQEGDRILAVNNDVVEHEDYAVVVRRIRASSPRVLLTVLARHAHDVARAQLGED
Sequence of NOS1, P29475 (P29475 9-101): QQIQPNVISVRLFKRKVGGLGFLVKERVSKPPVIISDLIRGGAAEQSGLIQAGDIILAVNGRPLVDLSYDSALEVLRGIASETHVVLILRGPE

Row | Binder | pKd (HTRA4, P83105) | pKd (Inadl_9, Q8NI35) | pKd (Inadl_3, Q8NI35) | pKd (SYNJ2BP, P57105) | pKd (SNTG2, Q9NY99) | pKd (NHERF2_2, Q15599) | pKd (ARHGEF11, O15085) | pKd (NOS1, P29475) | pKd (MAGI2_5, Q86UL8) | pKd (HTRA3, P83110) | pKd (SIPA1L2, Q9P2F8) | pKd (MAST1, Q9Y2H9) | pKd (Inadl_4, Q8NI35) | pKd (IL16_1, Q14005) | pKd (TJP1_2, Q07157) | pKd (SCRIB_2, Q14160) | pKd (ARHGEF12, Q9NZN5-2) | pKd (SNTA1, Q13424) | pKd (PARD3_3, Q8TEW0) | pKd (LNX2_3, Q8N448) | further results
1 | B1 | below the threshold | 3.53 | below the threshold | 4.36 | 3.89 | below the threshold | 4.06 | 3.64 | below the threshold | below the threshold | below the threshold | below the threshold | below the threshold | below the threshold | below the threshold | below the threshold | 4.12 | 5.32 | below the threshold | below the threshold | pKd (PCLO, Q9Y6V0): below the threshold; pKd (PARD3B_1, Q8TEW8): below the threshold; pKd (DLG2_2, Q15700): 4.95; pKd (MPP7, Q5T2T1): below the threshold; pKd (NHERF4_1, Q86UT5-2): below the threshold; pKd (SNTG1, Q9NSN8): below the threshold
2 | B2 | 3.64 | below the threshold | 4.23 | below the threshold | below the threshold | 4.48 | 3.49 | below the threshold | below the threshold | 4.17 | below the threshold | 4.96 | below the threshold | below the threshold | below the threshold | below the threshold | below the threshold | below the threshold | 4.43 | below the threshold | pKd (PCLO, Q9Y6V0): below the threshold; pKd (PARD3B_1, Q8TEW8): 5.18; pKd (DLG2_2, Q15700): below the threshold; pKd (MPP7, Q5T2T1): below the threshold; pKd (NHERF4_1, Q86UT5-2): 4.13; pKd (SNTG1, Q9NSN8): below the threshold
3 | B3 | below the threshold | below the threshold | 3.68 | 5.38 | 4.24 | below the threshold | 3.98 | 3.96 | 4.96 | below the threshold | below the threshold | 4.54 | below the threshold | 4.55 | below the threshold | 4.28 | 4.31 | 4.53 | below the threshold | below the threshold | pKd (PCLO, Q9Y6V0): below the threshold; pKd (PARD3B_1, Q8TEW8): below the threshold; pKd (DLG2_2, Q15700): 5.11; pKd (MPP7, Q5T2T1): below the threshold; pKd (NHERF4_1, Q86UT5-2): 3.71; pKd (SNTG1, Q9NSN8): 5.11
4 | B4 | 3.88 | below the threshold | below the threshold | below the threshold | below the threshold | below the threshold | below the threshold | below the threshold | below the threshold | below the threshold | below the threshold | 3.65 | below the threshold | below the threshold | below the threshold | below the threshold | below the threshold | below the threshold | below the threshold | below the threshold | pKd (PCLO, Q9Y6V0): below the threshold; pKd (PARD3B_1, Q8TEW8): below the threshold; pKd (DLG2_2, Q15700): below the threshold; pKd (MPP7, Q5T2T1): below the threshold; pKd (NHERF4_1, Q86UT5-2): below the threshold; pKd (SNTG1, Q9NSN8): below the threshold

Reference: publication PMC9482650, “Quantitative fragmentomics allow affinity mapping of interactomes” (Nature Communications, 2022)
